In patent publication US20060149521A1 (University of California, published 2006):

Key:
[1] = molecular target: T1, hTRβ1 L454R, full-length (human, UniProt P10828 1-461, [35S]-Met labelled (in vitro translated)); assay: GST-GRIP1 pull-down of [35S]-hTRβ1 with T3
T1 construct: range 1-461
T1 sequence (looked up): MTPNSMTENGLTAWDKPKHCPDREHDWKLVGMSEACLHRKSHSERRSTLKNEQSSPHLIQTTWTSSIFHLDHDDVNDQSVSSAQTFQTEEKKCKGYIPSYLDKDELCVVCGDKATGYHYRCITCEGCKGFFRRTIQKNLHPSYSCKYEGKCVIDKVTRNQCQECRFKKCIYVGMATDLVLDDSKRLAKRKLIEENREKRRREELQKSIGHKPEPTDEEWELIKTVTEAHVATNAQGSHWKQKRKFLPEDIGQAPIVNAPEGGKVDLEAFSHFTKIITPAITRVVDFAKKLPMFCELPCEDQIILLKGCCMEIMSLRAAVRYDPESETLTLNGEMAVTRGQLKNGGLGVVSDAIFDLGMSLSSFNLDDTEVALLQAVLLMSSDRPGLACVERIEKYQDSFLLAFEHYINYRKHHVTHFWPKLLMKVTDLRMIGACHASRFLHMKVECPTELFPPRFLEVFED

[2] = molecular target: T2, hTRβ1 E457K, full-length (human, UniProt P10828 1-461, [35S]-Met labelled (in vitro translated)); assay: GST-GRIP1 pull-down of [35S]-hTRβ1 with T3
T2 construct: range 1-461
T2 sequence (looked up): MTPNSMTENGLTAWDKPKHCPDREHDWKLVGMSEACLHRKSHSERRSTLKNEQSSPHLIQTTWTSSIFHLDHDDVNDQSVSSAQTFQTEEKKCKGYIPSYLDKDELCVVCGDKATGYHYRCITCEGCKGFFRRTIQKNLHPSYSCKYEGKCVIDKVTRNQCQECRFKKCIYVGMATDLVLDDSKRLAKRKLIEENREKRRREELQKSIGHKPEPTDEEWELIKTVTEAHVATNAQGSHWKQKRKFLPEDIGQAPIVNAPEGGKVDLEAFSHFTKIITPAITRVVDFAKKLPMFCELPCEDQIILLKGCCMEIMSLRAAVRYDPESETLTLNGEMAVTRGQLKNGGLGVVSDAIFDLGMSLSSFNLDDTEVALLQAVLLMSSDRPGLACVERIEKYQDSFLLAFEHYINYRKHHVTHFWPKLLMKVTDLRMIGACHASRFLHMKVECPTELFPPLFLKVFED

B1: GST-GRIP1 (GRIP1 amino acids 721-1121) (other, mouse, UniProt Q61026 721-1121, looked up)
chain: STAPGSEVTVKQEPASPKKKENALLRYLLDKDDTKDIGLPEITPKLERLDSKTDPASNTKLIAMKTVKEEVSFEPSDQPGSELDNLEEILDDLQNSQLPQLFPDTRPGAPTGSVDKQAIINDLMQLTADSSPVPPAGAQKAALRMSQSTFNNPRPGQLGRLLPNQNLPLDITLQSPTGAGPFPPIRNSSPYSVIPQPGMMGNQGMLGSQGNLGNNSTGMIGSSTSRPSMPSGEWAPQSPAVRVTCAATTGAMNRPVQGGMIRNPTASIPMRANSQPGQRQMLQSQVMNIGPSELEMNMGGPQYNQQQAPPNQTAPWPESILPIDQASFASQNRQPFGSSPDDLLCPHPAAESPSDEGALLDQLYLALRNFDGLEEIDRALGIPELVSQSQAVDAEQFSSQE
notes: not shown: glutathione-S-transferase (GST) from the pGEX vector
binding result [1]: no binding | binding result [2]: no binding
